Tests used:
[1] = tested on: VWF-034 (VWF D′D3-288XTEN-LVPR-Fc fusion construct)
[2] = tested on: VWF-055 (VWF D′D3-Fc fusion construct; 34 aa VWF linker comprising an a2 region from FVIII)
VWF-055 (VWF D′D3-Fc fusion construct; 34 aa VWF linker comprising an a2 region from FVIII), sequence (chain, as listed by the source): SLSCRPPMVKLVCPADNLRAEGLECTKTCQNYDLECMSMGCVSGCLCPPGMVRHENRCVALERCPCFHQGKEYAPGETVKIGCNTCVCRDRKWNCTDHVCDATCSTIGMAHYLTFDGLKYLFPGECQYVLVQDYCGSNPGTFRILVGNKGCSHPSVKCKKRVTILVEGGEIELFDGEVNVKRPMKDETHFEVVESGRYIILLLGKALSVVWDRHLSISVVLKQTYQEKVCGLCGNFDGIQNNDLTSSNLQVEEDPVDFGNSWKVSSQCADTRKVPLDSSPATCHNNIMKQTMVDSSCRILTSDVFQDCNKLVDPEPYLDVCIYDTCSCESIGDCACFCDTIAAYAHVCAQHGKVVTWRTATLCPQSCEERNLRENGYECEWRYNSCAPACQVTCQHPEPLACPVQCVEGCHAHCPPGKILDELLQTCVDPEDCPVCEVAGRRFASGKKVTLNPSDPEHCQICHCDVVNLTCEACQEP

VWF-034 (VWF D′D3-288XTEN-LVPR-Fc fusion construct), sequence (chain, as listed by the source): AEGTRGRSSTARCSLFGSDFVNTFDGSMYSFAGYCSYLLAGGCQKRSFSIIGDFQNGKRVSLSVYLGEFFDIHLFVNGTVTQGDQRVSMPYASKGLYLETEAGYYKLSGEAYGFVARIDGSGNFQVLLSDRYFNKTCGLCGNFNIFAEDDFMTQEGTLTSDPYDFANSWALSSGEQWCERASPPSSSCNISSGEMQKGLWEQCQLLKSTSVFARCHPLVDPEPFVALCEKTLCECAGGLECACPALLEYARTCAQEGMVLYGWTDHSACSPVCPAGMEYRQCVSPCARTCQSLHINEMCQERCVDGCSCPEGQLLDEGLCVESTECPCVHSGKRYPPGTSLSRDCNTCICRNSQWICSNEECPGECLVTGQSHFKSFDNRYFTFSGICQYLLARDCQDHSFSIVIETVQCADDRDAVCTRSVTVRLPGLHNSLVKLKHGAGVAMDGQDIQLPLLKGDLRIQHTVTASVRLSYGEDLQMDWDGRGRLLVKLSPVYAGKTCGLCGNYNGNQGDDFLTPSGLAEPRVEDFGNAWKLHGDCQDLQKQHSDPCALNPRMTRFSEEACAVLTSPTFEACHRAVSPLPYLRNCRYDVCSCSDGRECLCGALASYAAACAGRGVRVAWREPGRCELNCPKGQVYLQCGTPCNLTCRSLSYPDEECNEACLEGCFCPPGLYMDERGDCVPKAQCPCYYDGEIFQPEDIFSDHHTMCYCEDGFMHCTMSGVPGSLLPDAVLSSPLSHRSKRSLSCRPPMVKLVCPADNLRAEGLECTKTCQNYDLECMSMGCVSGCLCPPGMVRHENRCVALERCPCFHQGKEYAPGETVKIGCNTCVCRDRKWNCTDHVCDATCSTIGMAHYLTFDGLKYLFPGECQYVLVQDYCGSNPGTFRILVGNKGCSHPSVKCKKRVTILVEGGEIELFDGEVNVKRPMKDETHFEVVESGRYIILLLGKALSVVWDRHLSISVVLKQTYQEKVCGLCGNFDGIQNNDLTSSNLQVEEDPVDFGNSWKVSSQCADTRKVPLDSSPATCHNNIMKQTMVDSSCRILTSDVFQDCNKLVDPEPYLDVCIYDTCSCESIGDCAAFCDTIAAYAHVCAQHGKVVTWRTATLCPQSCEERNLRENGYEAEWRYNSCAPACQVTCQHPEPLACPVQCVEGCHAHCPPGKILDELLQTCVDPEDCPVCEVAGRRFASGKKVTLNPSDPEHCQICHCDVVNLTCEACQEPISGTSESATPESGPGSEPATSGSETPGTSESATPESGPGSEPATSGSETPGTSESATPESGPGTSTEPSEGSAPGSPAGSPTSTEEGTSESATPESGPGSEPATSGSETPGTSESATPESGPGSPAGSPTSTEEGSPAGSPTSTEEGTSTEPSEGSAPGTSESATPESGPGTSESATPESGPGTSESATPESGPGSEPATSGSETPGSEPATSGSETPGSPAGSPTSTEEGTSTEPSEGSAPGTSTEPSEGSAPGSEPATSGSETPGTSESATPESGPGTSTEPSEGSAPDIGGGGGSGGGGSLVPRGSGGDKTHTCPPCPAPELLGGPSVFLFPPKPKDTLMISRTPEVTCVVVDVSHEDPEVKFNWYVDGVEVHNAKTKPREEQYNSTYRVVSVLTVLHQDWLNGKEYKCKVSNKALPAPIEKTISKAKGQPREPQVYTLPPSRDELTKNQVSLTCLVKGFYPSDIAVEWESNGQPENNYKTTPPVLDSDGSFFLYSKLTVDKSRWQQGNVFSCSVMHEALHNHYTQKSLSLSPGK

## human alpha-thrombin
[1]
  thrombin cleavage rate relative to VWF-031 (Biacore): displayed slower cleavage compared to VWF-031
[2]
  thrombin cleavage relative to VWF-039 (Biacore): displayed similar thrombin cleavage as VWF-039 construct
